Laboratory results taken from the supplement of paper PMC12636428.

These sequences were tested on Saccharomyces cerevisiae (assay: transcriptional activation domain activity (GFP:mCherry ratio, weighted mean of sorted bins, harmonized to initial dataset scale) (arbitrary fluorescence ratio units); higher = stronger transcriptional activation). Settings: beta-estradiol 1 µM; induction time 4 h.
In short: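 The activation activity of each tile is the read-weighted mean of bin median fluorescence, averaged across its barcodes and mapped linearly onto the scale of the initial dataset. Tiles were fused to an estradiol-inducible synthetic transcription factor, barcoded, and integrated at URA3 in yeast diploids carrying a GFP reporter. Induction used 1 uM beta-estradiol in SC for 4 hours at 30 °C, after which cells were sorted into 8 GFP:mCherry bins, and any tile with fewer than 50 reads was dropped.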

First: RDKKKARAKGGAGAAGGEKKAEGAAAGDAAAAADGEDEEREGKRRKIARAAEG
Second: RDMLIDTYLTPENLYDVHGPGVPVKTLEIATALVDIVGQYDHNMKLEAWNVLH
The “transcriptional activation domain activity” value of the first is lower: 42200 for the first, 50000 for the second.

Going from “RDNESYSATNNNNLLRPDDNDYNNEALSDIDRSFEDIINGRKLKLKKSRRRSS” to “RDNSFLHALIHRFHEVHIVAWCIEKVNFMYLHPGVPFYVLCDCTRGPAIMVLH”, the “transcriptional activation domain activity” value rises from 15300 to 51300.

Going from “RDRGDSHRRHHHRSGSDDERRHRSDRRAREKDGDRSRSHRSSRHADEREERDE” to “RDRGGERDSKPRKTSGSSSNSQHADRGDTRSQKSSRRRRSSRSEHGGETSQHH”, the “transcriptional activation domain activity” value falls from 17600 to under 6570.

Compared with “RDRKKRKVDGSEDSDDSDDDGTRGKGRGKSKSKGKGKSKEKKKKSSRKSKKAE”, “RDRRRRSRSRSRDRRNKRRRRELEDRSKRRRSKSRVKNEETSEAEKRGRRRKP” is higher in “transcriptional activation domain activity” value: under 6570 for the first, 37900 for the second.

Going from “RDSKTDVEAEVEAAEKDEKKGKKRKRAEVVAAEESAEARKGKSKKSSRKGKEV” to “RDVFLGILHRNWFNRVWILQEVASARAAVVFCGRNSISTRIFTRLPLLFDITP”, the “transcriptional activation domain activity” value rises from 34100 to 68000.

First: RDVYYILHWVVAFTLVRATVMYKMLEPFIKWYGVRSQHKIMRFGEQGWLTIYY
Second: RDWRYVPEYVMRICRAHHADKPSVQMLVRKCFLEHIVNLTFTSFKALMSSKMS
The “transcriptional activation domain activity” value of the first is higher: 59800 for the first, 42700 for the second.

First: REAAGRERGERGRDNARGAGEREQPGRVRARLRGGRGKAREGEEGSCVRSAAP
Second: REARRHADEEARRRQARQEARRHADEEARRRQEEELARQEARRHADEEARRRQ
The “transcriptional activation domain activity” value of the first is lower: 22900 for the first, 27000 for the second.

First: REDRQRKQQREKERAAREAEGTQRRRRKRRRTNGGAKTEEGEEENDGEEEEDG
Second: REEAERKAREEEAERKAARGRGEESEGRARKAGARRARGTPRGGKAGTRRGGE
The “transcriptional activation domain activity” value of the first is higher: 52800 for the first, 43000 for the second.

First: REFRVVEEEEEEEEEEEEEEEEEEEEDEEEGGLGGESVEEGGRRDKGKGVVKE
Second: REGEERERDGRRTSTGRRARGKGRRSRRKEGKRENRKERERKEGKEGPGQRRR
The “transcriptional activation domain activity” value of the first is lower: 20100 for the first, 26700 for the second.

Going from “REGEGRGERGREGAGRERGGGKGVGGGEGGGERTIRLKGRKGDSNETTRRKEE” to “REGGGEGGGAQDGSSAPKKKRLGRKERIKSKAAGGDTGGEGADGAAASPEGAG”, the “transcriptional activation domain activity” value rises from 31700 to 39600.

Going from “REGGRRGRGRARSRRQGGKREERGRTRKGRKGGENRPKREGGQGGGERARRRE” to “REGHLFSCIYIMYCQILFRKVGWSSVFDCAFHVLLAMSAAGNFLVVGAIRCKC”, the “transcriptional activation domain activity” value falls from 41300 to 37300.

First: REGRKKGREAREKRSGGKGGKGGKGKGRATDGAEGAEEGAAAGARQPNGRNAK
Second: RELEKREREREEREREERERELEKREREREQRGRELEKRERRGRRGSESWRRG
The “transcriptional activation domain activity” value of the first is lower: 22200 for the first, 26100 for the second.

Compared with “RELKRMVQEAIRDIREKKSTLTVQHLKRLLFRVAALIICTPKCDHDLLHYLVI”, “REQQQRNDFPEGTHRMKVVAERWKTLSDDQREISFISSLLYAYVHVELRLRLG” is lower in “transcriptional activation domain activity” value: 61800 for the first, 46500 for the second.

Going from “RETDAWACGVVLYALCARRLPFGEGAARVEGESGGRIGREGGAREGAAARRHW” to “REYHGDTAEIKYGHKVVEIGEDKERGKARVRVEKDGEGGVKEEEVHEADYVVG”, the “transcriptional activation domain activity” value falls from 32400 to 22600.

Going from “REYNRMLRFYGVQDHQVKNTRLSVKEAFMLIIYRCVEVFCLFILSLPMIVLAS” to “RFFIRVLSNLKIDRHNSMYCTLGRPITILNLILRGWYVVRKFIILLFSIVLLF”, the “transcriptional activation domain activity” value falls from 58200 to 54100.

Compared with “RFGGSARGGGTGVEPPAKGKKGGGEEREGGEGRKGKGGRGPGTRERKGKERER”, “RFISLAFFDVVSCSVWLSIYHLLVLRFFLDLQSCLSFLLLYIRPSFPCLLIPR” is higher in “transcriptional activation domain activity” value: under 6570 for the first, 50500 for the second.

Going from “RFISTRSFLFIFLFDSFFFFSFFFLSLFFFFISFFSFSSFFFFIFTLYLSRAL” to “RFLFQWDLELALSLCLSHTLGIISLPYKSIFISILWLIQSSWQLLFFLFWQPL”, the “transcriptional activation domain activity” value rises from 28300 to 70400.

Going from “RFLICDYLLIIAGLFNIVATSLTQVVVNLGLGRHIMDPSVFPNILQYSYYLWI” to “RFLLAALLLFGPLIGSCPSMSMSLMITEFGLFCCACLLGFVHHLFFPIFVESR”, the “transcriptional activation domain activity” value rises from 25000 to 47600.

Going from “RFLLCLLCMELLLHFVYVGAINSSLPVWDSYTPAQLSLLSFQNLIIIWLKLLL” to “RFLSFLLLLLVFFYPFVFFVLALVLCTFWSLFPSNTPLHSLVCRLQLLHPFVF”, the “transcriptional activation domain activity” value rises from 36800 to 41400.

Going from “RFMVVIVSLFPRLNYFMDAVGHVLSVYYFNHLACQWITTAITSLAIVLFALRT” to “RFNLPICGEIKMYRGWTVIDLVHMVCINTACKISNLKHALRKLSISFTNLVKP”, the “transcriptional activation domain activity” value rises from 53900 to 54700.

Going from “RFRALRLLVIDDMIRLRDQSHCGWICTFLSSIELDVIQCINFRIWINMCPEFY” to “RFVTNILVILSDRVNMEQLLKRIRKKAADFYHFTDLWQWCCAQFVKLLRKVYN”, the “transcriptional activation domain activity” value rises from 32600 to 55100.

First: RFYVYLLILLGCIIWINQCQYATDRSGYQRGHSAVLRALFYRLCRLLQTAITP
Second: RGAARCFCVYFFLSLWHFYENHIFFFCSLFFHSLLLCHFFFSFFCVALRLLAC
The “transcriptional activation domain activity” value of the first is higher: 35000 for the first, 33800 for the second.

Compared with “RGAKEGARGGGENEKNEGDTGRSRAEGTRETESGAGASQQRAAREGTAGTQGR”, “RGATPGRKPAAGGPRESAARAARGRGKGGGTGGEGRGRGRARGRGRTRGKRRT” is higher in “transcriptional activation domain activity” value: under 6570 for the first, 54900 for the second.

First: RGDEDADGDDDEGEGSGDKTGDAEAGAAPSSGAGGGSSNSKKNKKKKNKKKGK
Second: RGDGAEDSNRKRRRRSRSPRRSPPDRARERSTTADDAKGTRHRDRSSHRHKDK
The “transcriptional activation domain activity” value of the first is higher: 51900 for the first, 32600 for the second.

Compared with “RGDGMEERKGEKRGRKGGERGGRGEGGHRGRKGDTEGGRGTGEKRGGKGGKRG”, “RGDTAAPGAEDDVELHYVCFVKGGDGRLWELDGRRKGPLERGRLGEGEDVLSE” is lower in “transcriptional activation domain activity” value: 33500 for the first, 27800 for the second.

Going from “RGEGDSKSDGKSDGKSEDKAENKGEEAPLVSEKDLVILAEHDLNGRQIKNVIK” to “RGEILESKFGRSSKPSPRILIVSNSKFYIVAQALVNHQVQISVERSVPLGAIK”, the “transcriptional activation domain activity” value rises from 11000 to 51900.

Compared with “RGERGQGAGGRGEGEGRGAGGERERRGGEREEGRGRERDERQGGKRERERGQG”, “RGFVVMLEGLFICGGLVIQAFLNLGLSHATGGVTWRFSLAFSCFFDLVVFFSI” is higher in “transcriptional activation domain activity” value: 21800 for the first, 46600 for the second.

First: RGGGGGGKRGSRAGSGIAADSKEKGNDGEVKLKDKEKGRSKEKKSGKEGGGAA
Second: RGGGRADQGRRKSPARARSASASSQSSSRSRSASRDSDQSNRRSKATSPGGRG
The “transcriptional activation domain activity” value of the first is higher: 35900 for the first, 32500 for the second.

Compared with “RGGGRKKKEADGEDGETTPKKTPRKRAAKEAEDGDASPKKKGRPAKAKPRQEP”, “RGGKGVEEERGEGGGRGEGERGQGGRGRGGRGAGARGRGGTGEEGEGAGGKQE” is higher in “transcriptional activation domain activity” value: 17900 for the first, 51400 for the second.

Going from “RGGNPSGNAGGAGRRAKKSKDRDRNKKKSKKNSGQSGDRSTSSSKNKNKKGGG” to “RGGRGRRNGGKERGKEKKGKKEEENDRRGKGKERKERRKNDGGKRREGREREK”, the “transcriptional activation domain activity” value rises from under 6570 to 47600.

Compared with “RGGRRGRGERKREKEEKKRRKRKGKEKRATTEEGGRARRKEKKAVCGRRWSGG”, “RGINAPLIQIPLYNNDPWIQTTISDDYLLPPGWFDILFPTNFDLLKDIYLTAF” is higher in “transcriptional activation domain activity” value: 46100 for the first, 60600 for the second.

First: RGKQPYRWTIWIYLGTRYSCLLMFITFFILNHAGHALCKPLILMNYVFNIVSW
Second: RGKSSSSSIGGAQEGAVRADETSHHHHHHHHQQQQQQQQQKQQQRHVQEQADI
The “transcriptional activation domain activity” value of the first is higher: 41700 for the first, 30600 for the second.

Compared with “RGKVVSRLRKVLQKTSFKPTRSLTDHWTWNEIAILIRFVLMLSFNNRGPVKSY”, “RGLKNVVVLPAVGERSLASCLAGGDLDGYVIRVLRMLVWFIAFSRDTYDIYIG” is higher in “transcriptional activation domain activity” value: 43200 for the first, 69600 for the second.

Going from “RGLVLCLCLCITLKTAFHMIAVYQPLHPLFTSIDLGHLQPQPFCKLGMILGIM” to “RGREDNEDGGRNKRRGGGRFEGRRGRGDRDGNRRRDTRDSRREDKSTANGDAS”, the “transcriptional activation domain activity” value falls from 65900 to under 6570.

Compared with “RGRLPCRYTIWIYSLTRVACLLGVIVCTVGMDVSTSYNCQLWVSSVATLFCVT”, “RGRRKWNWTVVLYFACRVTTLAAAVTQMTGFNFTSEISCKTWLILTRIFTNTS” is lower in “transcriptional activation domain activity” value: 70300 for the first, 48200 for the second.

First: RGSLREDESQHIATGVEGVHEARDGGRRTSNARAEKTKRVATPVCLSAAHTRG
Second: RGSVESDLIILAMTCTLDILMHLPRSVFYRRQLDLFLWLLRVIPSVKTTNSLN
The “transcriptional activation domain activity” value of the first is lower: 28600 for the first, 41400 for the second.

First: RGSYRLFLIHARLICTIHPLHLPLLYFPAYSMCILYPTPTYITSCSLLAVSFV
Second: RGTIRPGFLIYFFILFLWVFQIHCIMQIIVNRIALLHVSPTIVRRLKWGIFAI
The “transcriptional activation domain activity” value of the first is lower: 55700 for the first, 71800 for the second.

Compared with “RGTIRPGFLIYFFILFLWVFQIHCIMQIIVNRIALLHVSPTIVRRLKWGIFSI”, “RGTQKREKRGKEKGEGGTWGRAEGEGKRGGKEKGRREEKRGKKKEAGGAGGRG” is lower in “transcriptional activation domain activity” value: 66300 for the first, 23500 for the second.

First: RGVEKLKVEVGCFFWILGEGMIADERLKKFMKDMAHARHVVSSPDVCPNIITY
Second: RGWMVYIGFLVVFYSAAGFGLSVVNNFTLLIGVYKFVYPITTTLFQLIFTQIF
The “transcriptional activation domain activity” value of the first is lower: 40800 for the first, 50200 for the second.

Going from “RGYDIAKVSNSADLVSWVIAWLLCNNPHIVFIHFGFSYDILVLAAHALHILDC” to “RHAIVVKRVIRMSGKGKMSRMSALVVVGDGKGMVGFGEAKDPNAGKAGRKAFQ”, the “transcriptional activation domain activity” value falls from 38500 to 32800.

First: RHASRHASRHASRDASPERRTLRSNLAAAFSGHGRRSRPASPERGGGGGGGAG
Second: RHHPEIINALVTLIATASTTHVKYTFQGILDHYSYYVLVDGFTLKQLTWMQGI
The “transcriptional activation domain activity” value of the first is lower: 26800 for the first, 62700 for the second.

“RHICLILINIAVGLRFIFYAIDPYCIYNIFNPILNRLLFVTFYWIALLAYVLM” was tested, and the “transcriptional activation domain activity” value was 48100.
